Experimental data from patent US20140271653A1 (Regeneron, published 2014).
Numbering of substitutions follows the chain as printed. Read-outs that look alike come from different tables or passages of the source.

B1: H1H3589P (antibody, V domains shown)
VH: EVQLVESGGGLVQPGGSLRLSCEASGFTFSTYWMSWVRQAPGKGLEWVANIKQDGSVKYFVDSVKGRFTVSRDNAKNSLYLQMNSLRAEDTALYHCARERHRGSYYGYYDGMDVWGQGTTVTVSS
VL: DIQMTQSPSSLSASVGDRVTITCRASQNIDIYLNWYQERPGKAPNLLIYAASSLQSGVPSRFSGSGSGTDFTLTISSLQPEDFATYYCQQSYNTPFTFGGGTKVEIK
B2: H1H3591P (antibody, V domains shown)
VH: EVQLVESGGGLVQPGRSLRLSCAASGFTFDDYAMHWVRQTPGKGLEWISGISWSSGTIVYADSVKGRFTISRDNAKNSLYLQMNSLRGEDTALYHCAKDGYRWKSYSYGLDVWGQGTTVTVSS
VL: EIVMTQSPATLSLSPGERATLSCRPSQSVINNLAWYQQKPGQAPRLLIFGASSRATGIPARFSGSGSGTEFTLTISSLQSEDFALYYCQQYNNWPLTFGGGTKVEIK
B3: H1H3592P (antibody, V domains shown)
VH: EVQLVESGGDLVQPGRSLRLSCVASGFTFDDYAMHWVRQAPGKGLEWVSGVSWSGSTVGYADSVKGRFTVSRDNAQKSLYLQMNSLRAEDTALYYCVKDAYKWNYYYYGLDVWGQGTTVTVSS
VL: EIVMTQSPATLSVSPGERATLSCRASQTILSNLAWYLQKPGQAPRLLIYGASTRATGLPARFSGSGSGTEFTLTISSLQSEDFAVYYCQQYNNWPLTFGGGTKVEIK
B4: H1H3592P2 (antibody, V domains shown)
VH: B3 VH with W103Y
VL: B3 VL
B5: H1H3564P (antibody, V domains shown)
VH: QVQLVQSGAEVKKPGSSVKVSCKASGGTLSNNAFSWVRQAPGQGLEWLGGFNPIFDTANYAQKFQGRITITLDASTGTVYMELSSLRSEDTGVYYCAGTGAHFEFWGQGTLVTVSS
VL: DIQMTQSPSSLSASVGDRVTITCRTSQSISTYLNWYQQKPGKAPKFLIYAASTLQSGVPSRFSGSGSRTDFTLTISSLQPEDFATYYCQQSVSVPYTFGQGTKLEIK
B6: H1H3608P2 (antibody, V domains shown)
VH: QVQLVESGGGVVQPGRSLRLSCAASGFTFSSYGMHWVRQAPGKGLEWVAVIYYEGSNDYYVDSVKGRFTISRDNSKNTLYLQMNSLRAEDTAVYYCARRDWNSFDYWGQGTLVTVSS
VL: DIVMTQSPLSLSVTPGEPASISCRSSQNLLNRNGFNYLDWYLQKPGQSPQLLIYLGSNRASGVPDRFSGSGSGTDFTLKISRVEVEDVGVYYCMQAIQTPYTFGQGTKLEIK
B7: H1H3581P (antibody, V domains shown)
VH: EVQLVESGGGLVHPGGSLRLSCEASGFTLSSHVMSWVRQVPGKGLEWVSRISGPGGSTKYADSVQGRFTTSRDNSKNTLYLQMNSLIAEDSAAYYCAKGGGYSGYDWDFYYGMDVWGQGTTVTVSS
VL: DIQMTQSPSSVSASVGDRVTITCRASQGISSWLAWYQQKPGKAPKLLIYAASSLQSGVPSRFSGSGSGTDFTLTISSLQPEDFATYYCQQTNSFPLTFGGGTKVDIK
B8: H1H3607P (antibody, V domains shown)
VH: QVQLVESGGGLVKPGGSLRLSCAASGFTFSDYYMTWIRQVPGKGLEWVSYISSTGNNRYYGDSVKGRFAISRDNAKNLLFLQMNSLKAEDTAVYYCARENNWNPYFFYYGMDVWGQGTTVTVSS
VL: B7 VL with S31I, Y49S, S53T, T91A, G100Q, D105E
B9: H1H3597P (antibody, V domains shown)
VH: EVQLVESGGGLVQPGGSLRLSCGASGFTFRDFDMNWVRQAPGRGLEWVSGIGGSGGNTYYADSVKGRFTISRDNSKNTLFLQMSSLRAEDTAVYYCVKDPYGDYRNYYGMDVWGQGTTVTVSS
VL: DIVMTQSPLSLPVTPGEPASISCRSSQSLLHSNGYNYLDWYLQKPGQSPQLLIYLGSNRASGVPDRFRGSGSDKDFTLKISRVGAEDVGVYYCMQALQTITFGQGTRLEIK
B10: H1H3598P (antibody, V domains shown)
VH: EVQLVESGGGLGQPGGSLRLSCGASGFMFRNYAMSWVRQAPGKGLEWVSTILDSGDNTYYADSVKGRFTISRDNSKNTLYLQMNSLRAEDTAVYYCAKDPYGDYRDYYGMDVWGQGTTVTVSS
VL: B9 VL with D73G, G84E, V90L
B11: H1H3605P (antibody, V domains shown)
VH: QVQLQESGPGLVKPSETLSLTCTVSGGFISNYYWSWIRQPPGKGLEWIGYIYYSGSTKYNPSLKSRVTISVDTSKNQFSLKLSSVSAADTAVYYCARDGVVAAAGPPYHYHYGLDVWGQGTTVTVSS
VL: DIVMTQSPDSLAVSLGERATINCKSSQNLLYTSSNKNSLAWYQQKPGQPPELLIYWASTRESGVPDRFSGSGSGTDFILTISSLQAEDVAVYYCQQYYSSPWTFGQGTKVEIK
B12: H1H3583P (antibody, V domains shown)
VH: QVQLVQSGAEVKKSGSSVKVSCKASGGTFSSYAISWVRQAPGQGLEWMGGIIPIFGTGNYAQKFQGRVTITTDESTSTAYMELSSLRSEDTAVYYCARDSSSSPRYYGMDVWGHGTTVTVSS
VL: EIVLTQSPATLSLSPGERATLSCRASQSVTSYLAWYQQKPGQAPRLLIYDVSKRATGIPARFSGSGSGTDFTLTISSLEPEDFATYYCQQRSNWPPTFGQGTRLEIK
B13: H1H3603P (antibody, V domains shown)
VH: QVQLQESGPGLVKPSETLSLTCTVSGGSISGYYWTWIRQPPGKGLEWIGYIYYSGATNYNPSLKSRVTISLDTSKNQFSLKLSSVTAADTAVYYCARDGNYDILTGYYNYHYYGMDVWGQGTTVTVSS
VL: DIQMTQSPSSLSASVGDRVTITCRASQDIGNYLAWFQQKPGKAPESLIYAASILQSGVPSKFSGSGSGTDFTLTISSLQPEDFATYYCQQYNTFPWTFGQGTKVEIK
B14: H1H3567P (antibody, V domains shown)
VH: QVQLVQSGAEVKKPGASVKVSCKASGYTLTGYYLHWVRQAPGQGLEWMGWINPTSGGTNYAQKFQGRVTMTRDTSISAAFMELSRLRSDDTAVYHCAREFWPHGMDVWGQGTTVTVSS
VL: AIQMTQSPSSLSASVGDRVTITCRASQAIRNDLGWYQQKPGKAPKLLIYASSSLQSGVPSRFSGSGSGTDFTLTISSLQPEDFATYYCLADYKYTWTFGQGTKVEIK
B15: H1M3621N (antibody, V domains shown)
VH: QVQLEQSGAEVKKPGASVRISCKASGDTFTGYYINWVRQAPGQGLEWMGWINTNSGGTYFSQKFQVRVILTRDTSINTAYMELSRLRSDDTAVYYCARMFYDILTNSDIFDIWGQGTMVTVSS
VL: DIQMTQSPSSLSASVGDRVTITCRASQDIRNDLGWYQQKPGKAPKCLIYGASSLQSGVPSRFSGSGSGTEFTLTISSLQPEDFATYYCLQHKNYMYTFGQGTKLEIK
B16: H1H3565P (antibody, V domains shown)
VH: QVQLVESGGGVVQPGRSLRLSCAASGFTFNSYGMHWVRQAPGKGLEWVTFIWSDGSNKYYLDSVKGRFTISRDNSKNTLYLQMNSLRAEDTAVYYCARSGLASYYYYGMDVWGQGTTVTVSS
VL: B15 VL with D28G, C46R, Y87S, K92N, N93S, M95P, Y96W, L104V
B17: H1H3566P (antibody, V domains shown)
VH: B16 VH with N30S, T49V, I51L, S53Y, Y59H, L61A, G108S
VL: B15 VL with D28G, G34A, C46R, Q55H, Y87S, K92N, N93S, M95P, Y96W, L104V
B18: H1H3604P (antibody, V domains shown)
VH: QVQLVESGGGLVKPGGSLRLSCAASGFTFSDYYMTWIRQAPGRGLEWVSYISDTGSHLYYADSVRGRFTISRDNAKNSLYLQMNNLRAEDTAVYYCARDQDGEMELRFFDYWGQGTLVTVSS
VL: EIVLTQSPATLSLSPGERGTLSCRASQSINNYLAWYQQKPGQAPRLLIFDASNRATGIPARFSGSGSGTDFTLTISRIEPEDFAVYYCQQRTNWPLTFGGGTKVEIK

Experiments:
[1] = target: T1, RSV-F.mmh (Respiratory Syncytial Virus); assay: SPR (Biacore), mAb captured via Fc, soluble RSV-F.mmh injected, 25 C
T1 construct: also called recombinant RSV-F; soluble monomeric RSV-F

[2] = target: RSV-F of RSV subtype A strain A2 (1540) (respiratory syncytial virus subtype A, …, UniProt P03420 26-574); assay: cell-based or functional assay
[3] = target: T1, RSV-F.mmh; assay: SPR (Biacore), mAb captured via Fc, soluble RSV-F.mmh injected, 25 C; remark: listed apart in the source
Experimental: Measurements were conducted on a Biacore 4000 or T-200 instrument. […] All Biacore binding studies were performed in HBST running buffer (0.01 M HEPES pH 7.4, 0.15 M NaCl, 3 mM EDTA, 0.005% v/v surfactant P20). Different concentrations of RSV-F.mmh prepared in HBST running buffer were injected over the anti-RSV-F monoclonal antibody captured surface at a flow rate of 30 μl/min (Biacore 4000) or at a flow rate of 50 μl/min (Biacore T-200) and the association of RSV-F.mmh to captured monoclonal antibody was monitored for 6 min or 3 min respectively. The dissociation of RSV-F.mmh from the monoclonal antibody in HBST running buffer was monitored for 8-10 min at 25° C. Kinetic association (kₐ) and dissociation (kd) rate constants were determined by processing and fitting the data to a 1:1 binding model using Scrubber 2.0 curve fitting software. Binding dissociation equilibrium constants (KD) and dissociative half-lives (t½) were calculated from the kinetic rate constants as: KD (M)=kd/kₐ; and t_{1/2} (min)=(ln 2/(60*kd).

Binder | Kd [1] [nM] | koff [1] [s⁻¹] | kon [1] [M⁻¹ s⁻¹] | t½ [1] [h] | IC50 [pM] for RSV A2 Neutralization, Trial 1 [2] [pM] | other results
B1 | 243 | 0.00914 | 37700 | 0.0167 |  | IC50 [pM] for RSV A2 Neutralization, Trial 5 [2]: 300 pM
B2 | 34.2 | 0.00153 | 44600 | 0.133 |  | IC50 [pM] for RSV A2 Neutralization, Trial 4 [2]: 6 pM; IC50 [pM] for RSV A2 Neutralization, Trial 6 [2]: 8 pM; IC50 [pM] for RSV A2 Neutralization, Trial 7 [2]: 6 pM
B3 | 4.39 | 0.000466 | 106000 | 0.417 |  | IC50 [pM] for RSV A2 Neutralization, Trial 4 [2]: 6 pM; IC50 [pM] for RSV A2 Neutralization, Trial 6 [2]: 5 pM; IC50 [pM] for RSV A2 Neutralization, Trial 7 [2]: 4 pM
B4 | 14.7 | 0.00146 | 99300 | 0.133 |  | 
B5 | 25 | 7.78e-05 | 3100 | 2.47 | > 10000 | 
B6 | 5.35 | 2.6e-05 | 4850 | 7.42 | > 10000 | 
B7 |  |  |  |  | > 10000 | binding result [1]: no binding
B8 | 35 | 0.000148 | 4200 | 1.3 | > 10000 | 
B9 |  |  |  |  | > 10000 | binding result [1]: no binding
B10 |  |  |  |  | > 10000 | binding result [1]: no binding
B11 | 59 | 0.000168 | 2800 | 1.15 | > 10000 | 
B12 | 34.4 | 0.00308 | 89400 | 0.0667 |  | IC50 [pM] for RSV A2 Neutralization, Trial 5 [2]: 50 pM
B13 | 41 | 0.000123 | 3000 | 1.57 | > 10000 | 
B14 | 43.4 | 0.00263 | 60500 | 0.0667 |  | IC50 [pM] for RSV A2 Neutralization, Trial 4 [2]: 257 pM; IC50 [pM] for RSV A2 Neutralization, Trial 6 [2]: 390 pM
B15 |  |  |  |  | 582 | Kd [3]: 1.01 nM; koff [3]: 0.000208 s⁻¹; kon [3]: 205000 M⁻¹ s⁻¹; t½ [3]: 0.933 h; IC50 [pM] for RSV A2 Neutralization, Trial 2 [2]: 180 pM
B16 | 3.01 | 5.8e-05 | 19300 | 3.32 | > 10000 | 
B17 | 2.06 | 4.2e-05 | 20400 | 4.58 | > 10000 | 
B18 | 30 | 9.27e-05 | 3100 | 2.08 | > 10000 | 
